Data reported in publication doi:10.1101/2020.09.10.291369, “In vivo and in vitro mechanistic characterization of a clinically relevant PolγA mutation”.

Target: T1, POLγA A449T (UniProt P54099 26-1218, A450T)
T1 sequence: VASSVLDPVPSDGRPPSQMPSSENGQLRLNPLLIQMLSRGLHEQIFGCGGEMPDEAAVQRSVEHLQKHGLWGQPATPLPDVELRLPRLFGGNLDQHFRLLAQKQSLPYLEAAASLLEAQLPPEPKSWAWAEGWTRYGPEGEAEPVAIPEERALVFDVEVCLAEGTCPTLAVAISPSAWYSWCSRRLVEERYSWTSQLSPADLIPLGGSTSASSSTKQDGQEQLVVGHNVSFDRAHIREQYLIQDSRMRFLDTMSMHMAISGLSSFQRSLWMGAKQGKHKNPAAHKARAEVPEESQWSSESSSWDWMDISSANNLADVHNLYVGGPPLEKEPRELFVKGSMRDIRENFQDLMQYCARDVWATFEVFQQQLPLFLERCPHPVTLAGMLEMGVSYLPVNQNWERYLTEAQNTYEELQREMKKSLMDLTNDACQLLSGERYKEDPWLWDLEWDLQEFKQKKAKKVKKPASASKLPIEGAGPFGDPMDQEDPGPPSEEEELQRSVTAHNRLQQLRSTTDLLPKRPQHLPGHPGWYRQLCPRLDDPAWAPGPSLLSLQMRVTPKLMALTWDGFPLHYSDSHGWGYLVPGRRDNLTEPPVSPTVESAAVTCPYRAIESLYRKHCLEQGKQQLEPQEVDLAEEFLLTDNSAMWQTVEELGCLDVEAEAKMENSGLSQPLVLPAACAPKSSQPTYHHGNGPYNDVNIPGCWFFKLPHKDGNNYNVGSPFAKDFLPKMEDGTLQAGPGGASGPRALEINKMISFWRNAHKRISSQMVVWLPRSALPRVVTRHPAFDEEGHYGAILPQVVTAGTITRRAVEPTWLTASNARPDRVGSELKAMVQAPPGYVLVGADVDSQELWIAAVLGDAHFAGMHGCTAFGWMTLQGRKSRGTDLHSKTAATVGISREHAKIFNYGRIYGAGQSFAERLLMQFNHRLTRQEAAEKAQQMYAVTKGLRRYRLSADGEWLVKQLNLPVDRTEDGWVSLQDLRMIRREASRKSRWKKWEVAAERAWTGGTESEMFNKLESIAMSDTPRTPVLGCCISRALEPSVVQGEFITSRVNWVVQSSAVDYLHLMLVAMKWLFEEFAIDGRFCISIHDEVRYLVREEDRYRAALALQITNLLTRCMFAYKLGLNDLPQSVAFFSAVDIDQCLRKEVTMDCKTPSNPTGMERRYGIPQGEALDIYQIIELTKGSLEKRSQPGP
Test: EMSA; POLγA alone; 10 mM MgCl2, ddGTP, dCTP, ATP; Kd in Suppl. Fig. 5A, value not in material; EMSA: 10 fmol DNA in 15 µl, 20 mM Tris-HCl pH 7.8, 1 mM DTT, 0.1 mg/ml BSA, 10 mM MgCl2, 10% glycerol, 2 mM ATP, 0.3 mM ddGTP, 3 mM dCTP, RT 10 min; 6% native PAGE 0.5x TBE
Conditions: protein: recombinant; label: 5'-32P on strand 2 (21-mer); 5' overhang 15 nt on strand 1; 21 bp duplex; primer-template

B1: 36-nt/21-nt primed template (mixed)
DNA 1: TTTTTTTTTTATCCGGGCTCCTCTAGACTCGACCGC
DNA 2: GCGGTCGAGTCTAGAGGAGCC
B1 was tested. Which binding signal did it give?
The binding signal was roughly 3.4 fold weaker than WT.
